These results are taken from patent US20090138978A1 (GENERAL HOSPITAL, published 2009).

In assay [1] the target is p300 (full-length histone acetyltransferase and nuclear receptor coactivator) (UniProt Q09472). Briefly: cell-based or functional assay.
In assay [2] the target is Gal4-PDX-1 (Gal4 fusion protein of PDX-1) (UniProt P04386). Nature of the assay: cell-based or functional assay.
Assay [3] has as its target human PDX-1/IPF-1 mutant P63fsdelC, [35S]-radiolabeled in vitro translated (human) (UniProt P52945). Nature of the assay: GST pull-down with [35S]-labelled human PDX-1 proteins; reference is wild-type human PDX-1.
The target in assay [4] is T1, LexA-rat PDX-1 bait fusion protein (PDX-1 amino acids 160-283) (rat, UniProt P52947 160-283).
T1 construct: range 160-283; also called carboxy-terminal PDX-1 protein fragment; not shown: LexA moiety encoded by the yeast bait vector pEG202
T1 sequence (P52947 160-283 limits assumed): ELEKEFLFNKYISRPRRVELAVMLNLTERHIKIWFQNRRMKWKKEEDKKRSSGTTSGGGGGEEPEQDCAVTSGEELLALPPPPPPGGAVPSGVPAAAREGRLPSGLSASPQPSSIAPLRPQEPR
Nature of the assay: yeast two-hybrid interaction trap; - means no growth on leucine dropout plates and white colonies on X-gal plates.

Assay [5] addresses T2, GST-p300 (1572-2370) (UniProt Q09472 1572-2370).
T2 construct: also called carboxy-terminal segment of p300; not shown: glutathione S-transferase
T2 sequence (looked up): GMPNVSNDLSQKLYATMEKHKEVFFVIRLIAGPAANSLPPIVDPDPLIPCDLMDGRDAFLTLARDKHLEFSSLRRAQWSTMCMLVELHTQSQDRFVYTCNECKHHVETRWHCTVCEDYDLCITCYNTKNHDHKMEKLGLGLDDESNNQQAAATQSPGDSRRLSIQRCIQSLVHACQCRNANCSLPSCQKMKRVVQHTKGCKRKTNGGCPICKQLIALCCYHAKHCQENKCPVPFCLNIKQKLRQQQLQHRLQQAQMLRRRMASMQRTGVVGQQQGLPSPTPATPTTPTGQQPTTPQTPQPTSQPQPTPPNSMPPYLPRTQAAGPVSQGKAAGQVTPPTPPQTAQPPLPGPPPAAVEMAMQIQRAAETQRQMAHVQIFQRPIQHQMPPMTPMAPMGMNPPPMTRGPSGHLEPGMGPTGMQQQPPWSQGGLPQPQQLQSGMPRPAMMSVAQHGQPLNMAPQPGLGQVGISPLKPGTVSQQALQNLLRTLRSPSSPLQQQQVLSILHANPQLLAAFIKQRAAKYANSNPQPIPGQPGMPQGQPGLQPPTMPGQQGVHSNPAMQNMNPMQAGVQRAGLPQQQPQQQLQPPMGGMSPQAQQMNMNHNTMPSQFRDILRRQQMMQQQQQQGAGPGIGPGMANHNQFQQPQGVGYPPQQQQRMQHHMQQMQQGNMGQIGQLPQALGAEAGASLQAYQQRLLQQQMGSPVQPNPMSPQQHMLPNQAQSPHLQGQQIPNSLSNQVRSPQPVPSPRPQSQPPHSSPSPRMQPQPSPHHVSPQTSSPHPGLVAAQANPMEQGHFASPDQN
Briefly: GST pull-down with [35S]-labelled in vitro translated Bridge-1.

For assay [6], the target named is T3, p300 (full-length histone acetyltransferase and nuclear receptor coactivator) (UniProt Q09472 2-2414, limits assumed, [35S]-methionine labelled in the pull-down assays).
T3 construct: mature; In vitro translated in rabbit reticulocyte lysate for the pull-downs; Expressed from pCMV-p300 in BHK cells for the reporter assay; also called [35S]-p300; radiolabeled in vitro translated full-length p300
T3 sequence (Q09472 2-2414 limits assumed): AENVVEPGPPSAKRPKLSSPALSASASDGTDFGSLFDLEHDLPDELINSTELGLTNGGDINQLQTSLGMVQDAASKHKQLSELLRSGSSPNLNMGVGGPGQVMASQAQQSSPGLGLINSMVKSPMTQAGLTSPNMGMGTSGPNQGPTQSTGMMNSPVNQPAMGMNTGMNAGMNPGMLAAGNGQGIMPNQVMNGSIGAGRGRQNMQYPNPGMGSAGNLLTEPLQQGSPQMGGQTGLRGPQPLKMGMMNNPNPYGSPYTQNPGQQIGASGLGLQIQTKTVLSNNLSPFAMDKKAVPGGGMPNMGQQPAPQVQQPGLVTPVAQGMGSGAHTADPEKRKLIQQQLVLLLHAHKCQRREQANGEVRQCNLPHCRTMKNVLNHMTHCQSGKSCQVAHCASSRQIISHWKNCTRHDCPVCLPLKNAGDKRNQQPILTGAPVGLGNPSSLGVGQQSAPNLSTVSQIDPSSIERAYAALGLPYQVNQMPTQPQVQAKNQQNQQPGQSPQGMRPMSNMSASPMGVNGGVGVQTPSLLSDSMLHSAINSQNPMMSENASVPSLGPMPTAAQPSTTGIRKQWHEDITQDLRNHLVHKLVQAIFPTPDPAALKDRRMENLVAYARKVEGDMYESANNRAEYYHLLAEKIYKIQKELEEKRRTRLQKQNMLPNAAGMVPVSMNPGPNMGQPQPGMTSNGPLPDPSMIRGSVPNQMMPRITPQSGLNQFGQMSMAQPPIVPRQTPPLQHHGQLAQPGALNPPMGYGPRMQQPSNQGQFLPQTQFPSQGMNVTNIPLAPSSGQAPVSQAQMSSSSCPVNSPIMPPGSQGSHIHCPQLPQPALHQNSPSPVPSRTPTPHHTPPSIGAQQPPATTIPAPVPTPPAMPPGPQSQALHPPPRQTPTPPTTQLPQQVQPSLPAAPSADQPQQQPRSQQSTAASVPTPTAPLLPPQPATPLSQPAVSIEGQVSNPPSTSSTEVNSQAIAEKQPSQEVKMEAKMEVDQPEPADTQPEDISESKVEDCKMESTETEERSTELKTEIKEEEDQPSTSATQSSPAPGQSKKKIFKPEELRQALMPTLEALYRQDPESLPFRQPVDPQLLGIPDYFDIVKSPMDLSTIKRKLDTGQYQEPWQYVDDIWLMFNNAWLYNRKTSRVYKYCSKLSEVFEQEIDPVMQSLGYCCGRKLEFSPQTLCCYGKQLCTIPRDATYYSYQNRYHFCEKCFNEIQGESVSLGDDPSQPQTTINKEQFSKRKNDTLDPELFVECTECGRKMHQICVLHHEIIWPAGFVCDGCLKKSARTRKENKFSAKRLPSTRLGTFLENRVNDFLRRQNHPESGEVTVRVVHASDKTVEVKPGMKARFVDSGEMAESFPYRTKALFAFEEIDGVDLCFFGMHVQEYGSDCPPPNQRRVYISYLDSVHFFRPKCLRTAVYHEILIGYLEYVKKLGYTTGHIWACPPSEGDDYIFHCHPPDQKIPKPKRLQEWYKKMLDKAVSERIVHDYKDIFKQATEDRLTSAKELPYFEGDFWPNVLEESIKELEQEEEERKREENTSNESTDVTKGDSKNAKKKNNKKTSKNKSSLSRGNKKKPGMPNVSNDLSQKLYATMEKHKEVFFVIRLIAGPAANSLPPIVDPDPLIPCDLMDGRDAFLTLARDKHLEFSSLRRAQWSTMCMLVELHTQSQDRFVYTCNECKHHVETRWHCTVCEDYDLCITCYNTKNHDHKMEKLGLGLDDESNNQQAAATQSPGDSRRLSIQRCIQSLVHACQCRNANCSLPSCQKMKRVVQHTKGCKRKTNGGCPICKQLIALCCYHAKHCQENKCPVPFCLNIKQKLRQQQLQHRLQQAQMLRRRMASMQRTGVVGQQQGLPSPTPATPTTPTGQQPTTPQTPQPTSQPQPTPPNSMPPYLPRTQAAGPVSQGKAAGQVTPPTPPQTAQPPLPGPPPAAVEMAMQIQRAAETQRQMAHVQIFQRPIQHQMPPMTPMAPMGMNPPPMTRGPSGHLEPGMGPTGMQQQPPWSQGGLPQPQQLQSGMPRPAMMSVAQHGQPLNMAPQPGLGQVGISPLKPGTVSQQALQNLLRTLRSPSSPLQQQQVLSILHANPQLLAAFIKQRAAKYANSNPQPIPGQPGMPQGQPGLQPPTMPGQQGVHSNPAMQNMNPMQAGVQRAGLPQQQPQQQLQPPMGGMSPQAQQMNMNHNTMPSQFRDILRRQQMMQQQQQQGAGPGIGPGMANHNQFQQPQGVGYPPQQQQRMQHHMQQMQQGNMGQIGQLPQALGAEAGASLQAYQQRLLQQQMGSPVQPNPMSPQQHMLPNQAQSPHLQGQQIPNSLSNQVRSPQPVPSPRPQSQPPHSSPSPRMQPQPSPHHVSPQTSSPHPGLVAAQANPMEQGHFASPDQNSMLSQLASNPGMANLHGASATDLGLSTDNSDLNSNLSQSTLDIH
Nature of the assay: GST pull-down with [35S]-labelled in vitro translated p300.

Chain of human PDX-1/IPF-1 mutant P63fsdelC, [35S]-radiolabeled in vitro translated (human) (P52945 1-62, stated change not applied): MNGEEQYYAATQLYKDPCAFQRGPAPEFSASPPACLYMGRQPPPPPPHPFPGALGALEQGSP
Chain of p300 (full-length histone acetyltransferase and nuclear receptor coactivator) (UniProt Q09472) (Q09472 2-2414 limits assumed): as the sequence (Q09472 2-2414 limits assumed) above

In the case of “Gal4-Bridge-1 (Gal4 DNA-binding domain fused to full-length rat Bridge-1) (from UniProt P04386 1-147)”, the activation of a Gal4-CAT reporter in transfected BHK cells was more than 70 fold in assay [1] and 76 fold in assay [2].

For “GST-Bridge-1 (glutathione-S-transferase fused to full-length rat Bridge-1) (from UniProt P08515 1-218)”, the fold stronger interaction as compared to the wild-type PDX-1 protein in assay [3] was more than 2 fold.

B1: rat inhibitor of differentiation-3 (Id3) (yeast interaction trap control protein) (other, UniProt P41138 1-119, looked up)
chain: MKALSPVRGCYEAVCCLSERSLAIARGRGKSPSAEEPLSLLDDMNHCYSRLRELVPGVPRGTQLSQVEILQRVIDYILDLQVVLAEPAPGPPDGPHLPIQTAELTPELVISKDKRSFCH
notes: Control protein tested against the PDX-1 bait
Consider B1, for which the binding result in assay [4] was “no binding”.

B2: rat Bridge-1 (full-length, 1-222) (other)
chain: MSSEEVRHRAESSEARAAAVSDIQELMRRKEEIEAQIKANYDVLESQKGIGMNEPLVDCEGYPRADVDLYQVRTARHNIICLQNDHKALMKQVEEALHQLHARDKEKQARDMAEAREEAMNRRLASDSPALPKAFARVNSISPGSPASIAGLQVDDEIVEFGSVNTQNFQSLQNVGTVVQHSEGKPLNVMVIRRGEKHQLRLTPTRWAGKGLLGCNITPLQR
modifications: [35S]-methionine labelled in the pull-down assays
notes: In vitro translated from pcDNA3-Bridge-1 in rabbit reticulocyte lysate for the pull-downs; Expressed from the same vector in BHK and HeLa cells for the reporter assays; also called [35S]-Bridge-1; radiolabeled in vitro translated Bridge-1
In the case of B2, the binding result in assay [5] was “no binding”.

B3: GST-Bridge-1 (D156P) (other)
chain: MSSEEVRHRAESSEARAAAVSDIQELMRRKEEIEAQIKANYDVLESQKGIGMNEPLVDCEGYPRADVDLYQVRTARHNIICLQNDHKALMKQVEEALHQLHARDKEKQARDMAEAREEAMNRRLASDSPALPKAFARVNSISPGSPASIAGLQVDPEIVEFGSVNTQNFQSLQNVGTVVQHSEGKPLNVMVIRRGEKHQLRLTPTRWAGKGLLGCNITPLQR
notes: also called mutant GST-Bridge-1 fusion protein D156P; not shown: N-terminal glutathione-S-transferase carrier encoded by pGEX-5X-1, plus the short vector-derived linker
As to B3, the binding result in assay [6] is “no binding”.
